We go through 43 molecules from patent publication US20060193821, “Aptamers to the human IL-12 cytokine family and their use as autoimmune disease therapeutics” (published 2006).

In general, Kd refers to the concentration at which binding is half-saturated.

B1: ARC1470 (mixed)
RNA: GGCAAGUAAUUGGGGAGUGCGGGCGGGG
modifications: deoxy A,G; 2'-OMe C,U; six PS; 3'-idT [2'-OMe C,U at 3,7,10,11,18,20,24; deoxy A,G elsewhere; PS 8-9,16-17,17-18,18-19,19-20,23-24 (N = PS linkage, left out); 3'-inverted dT at 29]
B2: ARC1471 (mixed)
RNA: GGCAAGUAAUUGGGGAGUGCGGGCGGGG
modifications: 2'-OMe C,U and three purines (A7,A8,G15 of ARC979); six PS; 3'-idT [2'-OMe C,U at 3,7,10,11,18,20,24; 2'-OMe purines A4,A5,G12; deoxy A,G elsewhere; PS 8-9,16-17,17-18,18-19,19-20,23-24 (N = PS linkage, left out); 3'-inverted dT at 29]
B3: ARC1621 (mixed)
RNA: ACAGGCAAGUAAUUGGGGAGUGCGGGCGGGGUGU
modifications: 2'-OMe C,U and G16,G17,G24,G25,G30,G31; other A,G deoxy; PS 3-4,4-5; 3'-idT [PS 3-4,4-5; 2'-OMe at 2,6,10,13,14,16,17,21,23,24,25,27,30,31,32,34; other A,G deoxy; 3'-inverted dT at 35]
B4: ARC1461 (mixed)
RNA: B3 RNA
modifications: deoxy A,G; 2'-OMe C,U; PS 25-26; 3'-idT [PS linkage 25-26; 2'-OMe C,U at 2,6,10,13,14,21,23,27,32,34; all A,G 2'-deoxy; 3'-inverted dT at 35]
B5: ARC1463 (mixed)
RNA: B3 RNA
modifications: deoxy A,G; 2'-OMe C,U; PS 30-31; 3'-idT [2'-OMe C,U at 2,6,10,13,14,21,23,27,32,34; deoxy A,G elsewhere; PS 30-31 (N = PS linkage, left out); 3'-inverted dT at 35]
B6: ARC1543 (mixed)
RNA: B3 RNA
modifications: 2'-OMe C,U and A1,A8,G9,A11,G18,A19,G20,G22,G26,G28,G29,G33; other A,G deoxy; 3'-idT
B7: ARC1465 (mixed)
RNA: B3 RNA
modifications: deoxy A,G; 2'-OMe C,U; PS 11-12,19-20,20-21,21-22,22-23,26-27; 3'-idT [2'-OMe C,U at 2,6,10,13,14,21,23,27,32,34; deoxy A,G elsewhere; PS 11-12,19-20,20-21,21-22,22-23,26-27 (N = PS linkage, left out); 3'-inverted dT at 35]
B8: ARC1460 (mixed)
RNA: B3 RNA
modifications: deoxy A,G; 2'-OMe C,U; PS 24-25; 3'-idT [PS linkage 24-25; 2'-OMe C,U at 2,6,10,13,14,21,23,27,32,34; all A,G 2'-deoxy; 3'-inverted dT at 35]
B9: ARC1464 (mixed)
RNA: B3 RNA
modifications: deoxy A,G; 2'-OMe C,U; PS 31-32; 3'-idT [2'-OMe C,U at 2,6,10,13,14,21,23,27,32,34; deoxy A,G elsewhere; PS 31-32 (N = PS linkage, left out); 3'-inverted dT at 35]
B10: ARC1457 (mixed)
RNA: B3 RNA
modifications: deoxy A,G; 2'-OMe C,U; PS 16-17; 3'-idT [PS linkage 16-17; 2'-OMe C,U at 2,6,10,13,14,21,23,27,32,34; all A,G 2'-deoxy; 3'-inverted dT at 35]
B11: ARC1456 (mixed)
RNA: B3 RNA
modifications: deoxy A,G; 2'-OMe C,U; PS 15-16; 3'-idT [PS linkage 15-16; 2'-OMe C,U at 2,6,10,13,14,21,23,27,32,34; all A,G 2'-deoxy; 3'-inverted dT at 35]
B12: ARC1459 (mixed)
RNA: B3 RNA
modifications: deoxy A,G; 2'-OMe C,U; PS 23-24; 3'-idT [PS linkage 23-24; 2'-OMe C,U at 2,6,10,13,14,21,23,27,32,34; all A,G 2'-deoxy; 3'-inverted dT at 35]
B13: ARC1453 (mixed)
RNA: B3 RNA
modifications: deoxy A,G; 2'-OMe C,U; PS 3-4; 3'-idT [PS linkage 3-4; 2'-OMe C,U at 2,6,10,13,14,21,23,27,32,34; all A,G 2'-deoxy; 3'-inverted dT at 35]
B14: ARC1455 (mixed)
RNA: B3 RNA
modifications: deoxy A,G; 2'-OMe C,U; PS 5-6; 3'-idT [PS linkage 5-6; 2'-OMe C,U at 2,6,10,13,14,21,23,27,32,34; all A,G 2'-deoxy; 3'-inverted dT at 35]
B15: ARC1454 (mixed)
RNA: B3 RNA
modifications: deoxy A,G; 2'-OMe C,U; PS 4-5; 3'-idT [PS linkage 4-5; 2'-OMe C,U at 2,6,10,13,14,21,23,27,32,34; all A,G 2'-deoxy; 3'-inverted dT at 35]
B16: ARC1458 (mixed)
RNA: B3 RNA
modifications: deoxy A,G; 2'-OMe C,U; PS 17-18; 3'-idT [PS linkage 17-18; 2'-OMe C,U at 2,6,10,13,14,21,23,27,32,34; all A,G 2'-deoxy; 3'-inverted dT at 35]

The target of this data set is IL-23 (human, p19/p40 heterodimer) (Homo sapiens, UniProt Q9NPF7;P29460 SEQ:20-189,SEQ:23-328). The experiment in a line: filter; DPBS Ca Mg. As to conditions: tags: R&D Systems, carrier free. Here is the method: The dot blot binding assay previously described was used to characterize the relative potency of the majority of the aptamers synthesized. For KD determination, chemically synthesized aptamers were purified using denaturing polyacrylamide gel electrophoresis, 5′end labeled with γ-³²P ATP and were tested for direct binding to full human IL-23. An 8 point protein titration was used in the dot blot binding assay (either {100 nM, 30 nM, 10 nM, 3 nM, 1 nM, 300 pM, 100 pM, 0 pM} or {10 nM, 3 nM, 1 nM, 300 pM, 100 pM, 30 pM, 10 pM, 0 pM}) in Dulbecco's PBS (with Mg⁺⁺ and Ca⁺⁺) with 0.1 mg/mL BSA. KD values were calculated by fitting the equation y=(max/(1+K/protein))+yint using KaleidaGraph (KaleidaGraph v. 3.51, Synergy Software). Sequences of the ARC979 derivatives synthesized, purified and assayed for binding to IL-23 as well as the results of the protein binding characterization are tabulated below in Tables 29 and 30.
Sequence of IL-23 (human, p19/p40 heterodimer) (Q9NPF7 20-189, chain 1 of 2): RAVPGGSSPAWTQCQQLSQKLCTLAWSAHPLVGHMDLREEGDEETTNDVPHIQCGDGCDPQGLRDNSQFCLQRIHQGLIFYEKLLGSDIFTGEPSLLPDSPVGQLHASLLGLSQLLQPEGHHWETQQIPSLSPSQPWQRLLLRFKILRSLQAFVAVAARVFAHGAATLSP
Sequence of IL-23 (human, p19/p40 heterodimer) (P29460 23-328, chain 2 of 2): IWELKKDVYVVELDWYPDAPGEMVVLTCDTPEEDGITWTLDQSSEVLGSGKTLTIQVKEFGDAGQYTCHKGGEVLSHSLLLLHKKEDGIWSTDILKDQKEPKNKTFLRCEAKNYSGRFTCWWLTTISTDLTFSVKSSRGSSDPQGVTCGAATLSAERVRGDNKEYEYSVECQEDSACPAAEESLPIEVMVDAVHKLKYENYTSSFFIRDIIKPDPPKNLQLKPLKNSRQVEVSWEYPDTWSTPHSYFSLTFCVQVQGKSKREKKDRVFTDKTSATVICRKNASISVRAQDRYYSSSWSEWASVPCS
Regarding B1, the Kd came to 8.6 nM.
As for B2, the figure is 23.5 nM; as for B3, 0.5 nM.
As for ACAGGCAAGUAAUUGGGGAGUGCGGGCGGGGUGU (mixed, 2'-OMe C,U and G18,A19,G20,G22; other A,G deoxy; 3'-idT) [ARC1541], the figure is 3.9 nM; as for B4, 3.7 nM; as for ACAGGCAAGUAAUUGGGGAGUGCGGGCGGGGUGU (mixed, 2'-OMe C,U and G9; other A,G deoxy; 3'-idT) [ARC1433], 2.8 nM.
Next, ACAGGCAAGUAAUUGGGGAGUGCGGGCGGGGUGU (mixed, 2'-OMe C,U and G26; other A,G deoxy; 3'-idT) [ARC1445]: 2.8 nM.
For the molecule ACAGGCAAGUAAUUGGGGAGUGCGGGCGGGGUGU (mixed, 2'-OMe C,U and G31; other A,G deoxy; 3'-idT) [ARC1449], the Kd came to 2.6 nM.
With ACAGGCAAGUAAUUGGGGAGUGCGGGCGGGGUGU (mixed, 2'-OMe C,U and G29; other A,G deoxy; 3'-idT) [ARC1447], the Kd worked out at 2.5 nM.
Turning to B5, the equilibrium dissociation constant (Kd) amounted to 3.6 nM.
As for ACAGGCAAGUAAUUGGGGAGUGCGGGCGGGGUGU (mixed, 2'-OMe C,U and G24; other A,G deoxy; 3'-idT) [ARC1443], the figure is 2 nM.
Regarding B6, the Kd is 5.9 nM.
Next, ACAGGCAAGUAAUUGGGGAGUGCGGGCGGGGUGU (mixed, 2'-OMe C,U and G33; other A,G deoxy; 3'-idT) [ARC1450]: 2.6 nM; ACAGGCAAGUAAUUGGGGAGUGCGGGCGGGGUGU (mixed, 2'-OMe C,U and A8,G9,A11; other A,G deoxy; 3'-idT) [ARC1540]: 7.5 nM; B7: 1.3 nM.
With ACAGGCAAGUAAUUGGGGAGUGCGGGCGGGGUGU (mixed, 2'-OMe C,U and G30; other A,G deoxy; 3'-idT) [ARC1448], the equilibrium dissociation constant (Kd) was 2.3 nM.
Next, ACAGGCAAGUAAUUGGGGAGUGCGGGCGGGGUGU (mixed, 2'-OMe C,U and G26,G28,G29; other A,G deoxy; 3'-idT) [ARC1542]: 1.2 nM; ACAGGCAAGUAAUUGGGGAGUGCGGGCGGGGUGU (mixed, 2'-OMe C,U and A1,A3,G33; other A,G deoxy; 3'-idT) [ARC1451]: 10.2 nM.
With ACAGGCAAGUAAUUGGGGAGUGCGGGCGGGGUGU (mixed, 2'-OMe C,U and G16; other A,G deoxy; 3'-idT) [ARC1437], the Kd is 3.9 nM.
As for ACAGGCAAGUAAUUGGGGAGUGCGGGCGGGGUGU (mixed, 2'-OMe C,U and A3; other A,G deoxy; 3'-idT) [ARC1428], the Kd came to 1.8 nM.
Next, ACAGGCAAGUAAUUGGGGAGUGCGGGCGGGGUGU (mixed, 2'-OMe C,U and A1; other A,G deoxy; 3'-idT) [ARC1427]: 3 nM; B8: 5.8 nM; ACAGGCAAGUAAUUGGGGAGUGCGGGCGGGGUGU (mixed, 2'-OMe C,U and G25; other A,G deoxy; 3'-idT) [ARC1444]: 4.4 nM.
For the molecule ACAGGCAAGUAAUUGGGGAGUGCGGGCGGGGUGU (mixed, 2'-OMe C,U and G22; other A,G deoxy; 3'-idT) [ARC1442], the dissociation constant (Kd) stood at 2.8 nM.
As for ACAGGCAAGUAAUUGGGGAGUGCGGGCGGGGUGU (mixed, 2'-OMe C,U and A8; other A,G deoxy; 3'-idT) [ARC1432], the figure is 3.8 nM.
On to B9, for which the dissociation constant (Kd) turned out to be 2.4 nM.
As for ACAGGCAAGUAAUUGGGGAGUGCGGGCGGGGUGU (mixed, 2'-OMe C,U and G17; other A,G deoxy; 3'-idT) [ARC1438], the figure is 6 nM.
Next, B10: 3 nM.
As for ACAGGCAAGUAAUUGGGGAGUGCGGGCGGGGUGU (mixed, 2'-OMe C,U and G18; other A,G deoxy; 3'-idT) [ARC1439], the figure is 4.8 nM.
As to B11, the Kd was found to be 3.2 nM.
On to ACAGGCAAGUAAUUGGGGAGUGCGGGCGGGGUGU (mixed, 2'-OMe C,U and A19; other A,G deoxy; 3'-idT) [ARC1440], for which the dissociation constant Kd is 6.7 nM.
As for ACAGGCAAGUAAUUGGGGAGUGCGGGCGGGGUGU (mixed, 2'-OMe C,U and G28; other A,G deoxy; 3'-idT) [ARC1446], the figure is 2.1 nM; as for B12, 4 nM.
Next, ACAGGCAAGUAAUUGGGGAGUGCGGGCGGGGUGU (mixed, 2'-OMe C,U and A1,G33; other A,G deoxy; 3'-idT) [ARC1539]: 6.6 nM.
As for B13, the figure is 4.4 nM.
Turning to ACAGGCAAGUAAUUGGGGAGUGCGGGCGGGGUGU (mixed, 2'-OMe C,U and G20; other A,G deoxy; 3'-idT) [ARC1441], the Kd amounted to 2.7 nM.
In the case of B14, the Kd came to 1.6 nM.
As for ACAGGCAAGUAAUUGGGGAGUGCGGGCGGGGUGU (mixed, 2'-OMe C,U and A12; other A,G deoxy; 3'-idT) [ARC1435], the figure is 9.8 nM; as for B15, 2.7 nM; as for B16, 2.9 nM.
Next, ACAGGCAAGUAAUUGGGGAGUGCGGGCGGGGUGU (mixed, 2'-OMe C,U and G5; other A,G deoxy; 3'-idT) [ARC1430]: 14.2 nM; ACAGGCAAGUAAUUGGGGAGUGCGGGCGGGGUGU (mixed, 2'-OMe C,U and A7,A8,G15; other A,G deoxy; 3'-idT) [ARC1452]: 18.9 nM; ACAGGCAAGUAAUUGGGGAGUGCGGGCGGGGUGU (mixed, 2'-OMe C,U and A11; other A,G deoxy; 3'-idT) [ARC1434]: 3 nM.
